The target of this test is human neutrophil elastase (human) (UniProt P08246). As to the kind of experiment: cell-based or functional assay. The note with it: scale: moles of AAT polypeptide per mole of protease.
UniProt P08246, sequence (P08246 30-247 limits assumed): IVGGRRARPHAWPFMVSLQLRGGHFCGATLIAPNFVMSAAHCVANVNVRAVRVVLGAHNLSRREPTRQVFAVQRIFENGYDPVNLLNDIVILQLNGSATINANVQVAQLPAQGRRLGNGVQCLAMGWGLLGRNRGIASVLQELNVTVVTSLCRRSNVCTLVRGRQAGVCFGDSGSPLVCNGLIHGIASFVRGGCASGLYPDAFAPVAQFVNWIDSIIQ

“Breach graft (wtAAT carrying S276K, T278E, T323E, D325N, K327E) (from UniProt P01009 41-418)” registered an SI against HNE (n = 3) of 1.09.

Consider “F35 graft (wtAAT carrying L275F, I324V, M358I) (from UniProt P01009 41-418)”, for which the SI against HNE (n = 3) came out at 1.11.

Turning to “Helix-F graft (wtAAT carrying G99A, Y144W, Y171A) (from UniProt P01009 41-418)”, the SI against HNE (n = 3) was 1.35.

The values above are taken from patent US20250092119A1.
